Positions count from the first letter of the chain named.
B1: DX446 (antibody, V domains shown)
VH: QIQLVQSGPELKKPGETVKISCKASGYTFTNYRMTWVKQAPGKGLKWMGWINTNTGDPTYAEELKGRFAFSSETSASTAYLQINNLKNEDTATYFCAREGFFNYAMDYWGQGTSVTVSS
VL: DILLTQSPAILSVSPGKRVSFSCRASQSIGTSIHWYQQRTNGSPRLLIKYASESISGIPSRFSGSGSGTDFTLSINSVESEDIADYYCQQSNSWPPTFGAGTKLELK
notes: Mouse hybridoma anti-ILT3 antibody tested as hybridoma supernatant; also called Anti-ILT3 (DX446)
B2: DX435 (antibody, V domains shown)
VH: EVQLQQSGPEMVKPGASVKISCKASGYAFTDYNIHWVKKSHGKSPEWIGHIYPYNKDTVFNQNKTKATLTVDKSTTTAYMDLRSLTSEDSAVYYCARGAVGYFDYWGQGTTLTVSS
VL: DIQMTQSPASLSASVGETVTITCRASGNIHNFLAWYQQKQGKSPQLLVYNAKTLADGVPSRFSGSGSGTQYSLKINSLQPEDFGSYYCQHFWSYPFTFGAGTKLELK
notes: Mouse hybridoma anti-ILT3 antibody tested as hybridoma supernatant
B3: DX440 (antibody, V domains shown)
VH: EVQLQQSGPELVKPGASVKISCKASGYTFSDYNMHWVKQSHGKSLKWIGHIFPYIGDTVYNQKFTSKATLTVDNSSSTGYMEIRSLTSEDSAVYYCARGAVGYFDYWGQGTTLTVSS
VL: B2 VL with F32Y, L46F, S85T, Y94F
notes: as for B2
B4: DX439 (antibody, V domains shown)
VH: EVQLQQPGPELVKPGASVKISCKASGYTFTDYNMHWVRQRHGKSLEWIGHIYPYNGNTVYNQRFKNKATLNVDNFSSTAYMELRSLTSEDSAVYYCARGAVGYFDHWGQGTTLTVSS
VL: B2 VL with K42R, S85N, K103N
notes: as for B2

Biological target: T1, ILT3Fc (human)
T1 construct: also called ILT3Fc-fusion protein; human ILT3Fc
T1 sequence (chain, as listed by the source limits assumed): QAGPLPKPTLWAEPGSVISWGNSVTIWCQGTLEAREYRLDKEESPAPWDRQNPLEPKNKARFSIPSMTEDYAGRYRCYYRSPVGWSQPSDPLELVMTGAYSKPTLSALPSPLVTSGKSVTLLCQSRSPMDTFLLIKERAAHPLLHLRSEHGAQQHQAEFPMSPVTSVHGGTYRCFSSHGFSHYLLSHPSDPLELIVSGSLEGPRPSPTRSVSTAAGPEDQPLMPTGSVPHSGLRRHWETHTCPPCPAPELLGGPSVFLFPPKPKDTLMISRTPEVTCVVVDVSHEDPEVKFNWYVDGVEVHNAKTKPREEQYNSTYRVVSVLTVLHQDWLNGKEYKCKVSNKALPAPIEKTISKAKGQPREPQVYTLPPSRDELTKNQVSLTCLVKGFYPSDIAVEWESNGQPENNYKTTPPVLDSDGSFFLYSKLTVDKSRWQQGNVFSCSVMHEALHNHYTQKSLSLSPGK
Experiment: Octet (BLI), ILT3Fc on anti-human Fc biosensors, antibody supernatant 167 nM

| Binder | binding result |
| --- | --- |
| B1 | binds |
| B2 | binds |
| B3 | binds |
| B4 | binds |

From patent publication US20190241655A1 (Merck Sharp & Dohme, published 2019)
